Source: PMC3241645 (Nucleic Acids Research, 2011)

Key:
[1] = biological target: Helicobacter pylori GluRS2 (non-canonical glutamyl-tRNA synthetase 2) (Helicobacter pylori) (UniProt O25360); experiment: dynamic light scattering
[2] = biological target: Helicobacter pylori GluRS2 (non-canonical glutamyl-tRNA synthetase 2) (Helicobacter pylori) (UniProt O25360); experiment: nanopore optical interferometry
[3] = biological target: the molecule itself; experiment: nanopore optical interferometry

Molecule | stoichiometry N [1] | average optical path difference at plateau, 0.5 µM GatCAB [2] | average optical path difference at plateau, 2 µM GatCAB [2] | average optical path difference at plateau, 5 µM GatCAB [2] | average optical path difference at plateau, 10 µM GatCAB [2] | average optical path difference at plateau, 19 µM GatCAB [2] | binding result [3]
Helicobacter pylori GatCAB (tRNA-dependent amidotransferase) (complex) | 1 | 0.6 nm | 2.2 nm | 5.4 nm | 10.4 nm | 16.2 nm | –
Helicobacter pylori GluRS2 (non-canonical glutamyl-tRNA synthetase 2) (enzyme, UniProt O25360 1-439, looked up) MLRFAPSPTGDMHIGNLRAAIFNYIVAKQQYKPFLIRIEDTDKERNIEGKDQEILEILKLMGISWDKLVYQSHNIDYHREMAEKLLKENKAFYCYASAEFLEREKEKAKNEKRPFRYSDEWATLEKDKHHAPVVRLKAPNHAVSFNDAIKKEVKFEPDELDSFVLLRQDKSPTYNFACACDDLLYKISLIIRGEDHVSNTPKQILIQQALGSNDPIVYAHLPIILDEVSGKKMSKRDEASSVKWLLNQGFLPVAIANYLITIGNKVPKEVFSLDEAIEWFSLENLSSSPAHFNLKYLKHLNHEHLKLLDDDKLLELTSIKDKNLLGLLRLFIEECGTLLELREKISLFLEPKDIVKTYENEDFKERCLALFNALTSMDFQAYKDFESFKKEAMRLSQLKGKDFFKPLRILLTGNSHGVELPLIFPYIQSHHQEVLRLKA | – | – | – | – | – | – | binds
